From US20240124607A1 (Merck Sharp & Dohme, published 2024) come the findings set out here.

One assay addresses T1, CEACAM5 A1-B1-Fc (human, UniProt P06731 145-322, limits assumed).
T1 construct: also called A1-B1 domain
T1 sequence: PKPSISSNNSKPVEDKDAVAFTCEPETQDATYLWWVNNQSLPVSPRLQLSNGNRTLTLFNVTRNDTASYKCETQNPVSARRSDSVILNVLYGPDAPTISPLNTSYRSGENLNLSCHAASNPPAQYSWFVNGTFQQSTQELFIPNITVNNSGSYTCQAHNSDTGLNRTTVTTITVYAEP
Briefly: SPR, Fab capt, 25C. On the procedure: If the protein domain was an Fc fusion, AB0411, AB0466, AB0264, or AB0621 were captured using an anti-human Fab antibody (Cytiva, #28958325) immobilized onto a CM5 chip. The various hCEACAM5 protein domains (N-term, A1-B1, A2, B2, A3, or B3) were titrated over the captured TriNKETs at 50 μL/min for 180 sec of association and 300 sec of dissociation. The assay was run at 25° C. in HBS-EP+ running buffer, pH 7.4. The surface of the CM5 chip was regenerated using […] glycine pH 2.1.
(In general: SPR reads the build-up and loss of mass on a sensor chip optically.)

The target in assay [1] is T2, human CEACAM1 on Ba/F3 cells (human, UniProt P13688 35-526).
T2 construct: whole, on cells
T2 sequence (looked up): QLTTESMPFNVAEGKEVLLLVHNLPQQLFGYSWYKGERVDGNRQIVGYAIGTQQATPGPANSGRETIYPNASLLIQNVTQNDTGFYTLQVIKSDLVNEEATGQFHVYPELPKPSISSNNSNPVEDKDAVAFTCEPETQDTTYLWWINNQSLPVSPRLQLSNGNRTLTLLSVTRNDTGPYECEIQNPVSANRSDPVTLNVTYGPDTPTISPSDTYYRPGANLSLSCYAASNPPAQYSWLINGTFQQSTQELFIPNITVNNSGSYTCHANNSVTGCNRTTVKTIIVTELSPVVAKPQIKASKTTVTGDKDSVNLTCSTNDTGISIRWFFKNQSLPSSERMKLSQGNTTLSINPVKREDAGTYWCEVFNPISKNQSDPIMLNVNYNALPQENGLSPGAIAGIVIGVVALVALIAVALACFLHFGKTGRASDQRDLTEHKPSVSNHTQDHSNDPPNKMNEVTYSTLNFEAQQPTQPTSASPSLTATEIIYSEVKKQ
Briefly: flow cytometry on Ba/F3 cells expressing human CEACAM1, fold over background (FOB), 5-fold dilutions from 1600 nM. How it is done:
To examine the binding specificity of the TriNKETs to CEACAM5 compared to other CEACAM family members, Ba/F3 cells were engineered to express one of human CEACAM1, CEACAM6, CEACAM8, or cynomolgus CEACAM5. CEACAM5 TriNKETs were evaluated by flow cytometry starting at 1600 nM followed by 7 5-fold dilutions.

The next assay addresses T3, Cynomolgus CEACAM5 (cynomolgus monkey).
T3 construct: also called cyno CEACAM5
Put plainly: SPR, anti-hFc capture, 37C, pH 6.0. On the procedure:
To determine the affinity and cross-reactivity of CEACAM5 TriNKET molecules, AB0411, AB0466, or AB0621 TriNKETs were captured using an anti-human Fc capture antibody (Cytiva, #BR100839) immobilized onto a Biacore CM5 standard surface sensor chip following manufacturer instructions. Human or cynomolgus CEACAM5 were titrated over captured AB0411, AB0466, and AB0621 as 2-fold serial dilutions starting from 300 nM. Association was monitored for 300 sec and dissociation was monitored for 600 sec. The assay was run at 37° C. at pH 7.4 and 6.0. The surface of the CM5 chip was regenerated with 10 mM glycine pH 1.5 for 20 sec at 100 μL/min.

B1: AB0621 F3' CEACAM5 TriNKET (bispecific antibody, human IgG1, kappa)
chain: DIVMTQSPDSLAVSLGERATINCKSSHSLLYGNFQNNYLAWYQQKPGQPPKLLIYWASTRESGVPDRFSGSGSGTDFTLTISSLQAEDVAVYYCQQYYSYPYTFGCGTKLEIKGGGGSGGGGSGGGGSGGGGSQVQLVQSGAEVKKPGASVKVSCKASGYTFTAYTIHWVRQAPGQCLEWMGYINPSSGYTEYNQKFKDRTTLTADTSISTAYMELSRLRSDDTAVYYCTREGGLLWFDYWGQGTLVTVSSGSDKTHTCPPCPAPELLGGPSVFLFPPKPKDTLMISRTPEVTCVVVDVSHEDPEVKFNWYVDGVEVHNAKTKPREEQYNSTYRVVSVLTVLHQDWLNGKEYKCKVSNKALPAPIEKTISKAKGQPREPRVYTLPPCRDELTKNQVSLTCLVKGFYPSDIAVEWESNGQPENNYKTTPPVLVSDGSFTLYSKLTVDKSRWQQGNVFSCSVMHEALHNHYTQKSLSLSPG
heavy: EVQLVESGGGLVKPGGSLRLSCAASGFTFSSYSMNWVRQAPGKGLEWVSSISSSSSYIYYADSVKGRFTISRDNAKNSLYLQMNSLRAEDTAVYYCARGAPIGAAAGWFDPWGQGTLVTVSSASTKGPSVFPLAPSSKSTSGGTAALGCLVKDYFPEPVTVSWNSGALTSGVHTFPAVLQSSGLYSLSSVVTVPSSSLGTQTYICNVNHKPSNTKVDKKVEPKSCDKTHTCPPCPAPELLGGPSVFLFPPKPKDTLMISRTPEVTCVVVDVSHEDPEVKFNWYVDGVEVHNAKTKPREEQYNSTYRVVSVLTVLHQDWLNGKEYKCKVSNKALPAPIEKTISKAKGQPREPQVCTLPPSRDELTENQVSLTCLVKGFYPSDIAVEWESNGQPENNYKTTPPVLDSDGSFFLYSWLTVDKSRWQQGNVFSCSVMHEALHNHYTQKSLSLSPG
light: DIQMTQSPSSVSASVGDRVTITCRASQGISSWLAWYQQKPGKAPKLLIYAASSLQSGVPSRFSGSGSGTDFTLTISSLQPEDFATYYCQQGVSFPRTFGGGTKVEIKRTVAAPSVFIFPPSDEQLKSGTASVVCLLNNFYPREAKVQWKVDNALQSGNSQESVTEQDSKDSTYSLSSTLTLSKADYEKHKVYACEVTHQGLSSPVTKSFNRGEC
Take B1: in the assay with CEACAM5 A1-B1-Fc, the Kd was found to be 1.5 nM and the kon is 250000 M⁻¹ s⁻¹. Also, the binding result in assay [1] is reported as “no binding (tested: 1600 nM)”. In the assay with Cynomolgus CEACAM5, this molecule yielded a dissociation constant Kd of 6.5 nM and a kon of 130000 M⁻¹ s⁻¹.

By Kd is commonly meant the concentration at which binding is half-saturated. Higher therefore signals weaker binding. One may read the kon as the second-order rate constant of association.
